Assay results taken from US20230265151A1, “GIP/GLP1 CO-AGONIST COMPOUNDS” (priority 2020, published 2023).

B1: Example 73 (peptide)
peptide: YXEGTXTSDXSIXLDXIAQXKFIXXLIKGGPSSGAPPPS
modifications: Aib2, αMeF(2F)6, 4Pal10, αMeL13, Orn16, Aib20, D-Glu24, αMeY25, K21 and K28: K(AEEA2-(γ-Glu)-CO-(CH2)12-CO2H), C-terminal NH2
B2: Example 74 (peptide)
peptide: YXEGTXTSDXSIXLDXIAQXKFIXXLIEGGKSSGAPPPS
modifications: Aib2, αMeF(2F)6, 4Pal10, αMeL13, Orn16, Aib20, D-Glu24, αMeY25, K21 and K31: K(AEEA2-(γ-Glu)-CO-(CH2)12-CO2H), C-terminal NH2
B3: Example 72 (peptide)
peptide: YXEGTXTSDXSIXLDXIAQXEFIKXLIEGGPSSGAPPPSK
modifications: Aib2, αMeF(2F)6, 4Pal10, αMeL13, Orn16, Aib20, αMeY25, K24 and K40: K(AEEA2-(γ-Glu)-CO-(CH2)12-CO2H), C-terminal NH2
B4: Example 75 (peptide)
peptide: YXEGTXTSDXSIXLDXIAQXKFIXXLIEGGPSSGAPPPSK
modifications: Aib2, αMeF(2F)6, 4Pal10, αMeL13, Orn16, Aib20, D-Glu24, αMeY25, K21 and K40: K(AEEA2-(γ-Glu)-CO-(CH2)12-CO2H), C-terminal NH2
B5: Example 68 (peptide)
peptide: YXEGTXTSDXSIXLDXKAQXEFIEKLIEGGPSSGAPPPS
modifications: Aib2, αMeF(2F)6, 4Pal10, αMeL13, Orn16, Aib20, K17 and K25: K(AEEA2-(γ-Glu)-(4-(4-tert-butylphenyl)butanoyl)), C-terminal NH2
B6: Example 8 (peptide)
peptide: YXEGTXTSDXSIXLDXKAQXEFIXXLIEGGKSSGAPPPS
modifications: Aib2, αMeF(2F)6, 4Pal10, αMeL13, Orn16, Aib20, D-Glu24, αMeY25, K17 and K31: K(AEEA2-(γ-Glu)-CO-(CH2)12-CH3), C-terminal NH2
B7: Example 69 (peptide)
peptide: YXEGTXTSDXSIXLDXIAQXKFIKXLIEGGPSSGAPPPS
modifications: Aib2, αMeF(2F)6, 4Pal10, αMeL13, Orn16, Aib20, αMeY25, K21 and K24: K(AEEA2-(γ-Glu)-CO-(CH2)12-CO2H), C-terminal NH2
B8: Example 76 (peptide)
peptide: YXEGTXTSDXSIXLDXKAQXKFIXXLIEGGPSSGAPPPS
modifications: Aib2, αMeF(2F)6, 4Pal10, αMeL13, Orn16, Aib20, D-Glu24, αMeY25, K17 and K21: K(AEEA-(γ-Glu)-CO-(CH2)12-CO2H), C-terminal NH2
B9: Example 82 (peptide)
peptide: YXEGTXTSDXSIXLDXKAQXEXIKXLIEGGPSSGAPPPS
modifications: Aib2, αMeF(2F)6, 4Pal10, αMeL13, Orn16, Aib20, αMeF22, αMeY25, K17 and K24: K(AEEA2-(γ-Glu)-CO-(CH2)12-CO2H), C-terminal NH2
B10: Example 78 (peptide)
peptide: YXEGTXTSDXSIXLDXKAQXKFIXXLIEGGPSSGAPPPS
modifications: Aib2, αMeF(2F)6, 4Pal10, αMeL13, Orn16, Aib20, D-Glu24, αMeY25, K17 and K21: K(AEEA2-CO-(CH2)12-CO2H), C-terminal NH2
B11: Example 70 (peptide)
peptide: YXEGTXTSDXSIXLDXIAQXEFIKXLIKGGPSSGAPPPS
modifications: Aib2, αMeF(2F)6, 4Pal10, αMeL13, Orn16, Aib20, αMeY25, K24 and K28: K(AEEA2-(γ-Glu)-CO-(CH2)12-CO2H), C-terminal NH2
B12: Example 80 (peptide)
peptide: YXEGTXTSDXSIXLDXKAQXEFIKXLIEGGPSSGAPPPS
modifications: Aib2, αMeF(2F)6, 4Pal10, αMeL13, Orn16, Aib20, αMeY25, K17 and K24: K(AEEA3-(γ-Glu)-CO-(CH2)12-CO2H), C-terminal NH2
B13: Example 81 (peptide)
peptide: YXEGTXTSDXSIXLDXKAQXEFIKXLIEGGPSSGAPPPS
modifications: Aib2, αMeF(2F)6, 4Pal10, αMeL13, Orn16, Aib20, αMeY25, K17 and K24: K(AEEA2-CO-(CH2)12-CO2H), C-terminal NH2
B14: Example 71 (peptide)
peptide: YXEGTXTSDXSIXLDXIAQXEFIKXLIEGGKSSGAPPPS
modifications: Aib2, αMeF(2F)6, 4Pal10, αMeL13, Orn16, Aib20, αMeY25, K24 and K31: K(AEEA2-(γ-Glu)-CO-(CH2)12-CO2H), C-terminal NH2
B15: Example 77 (peptide)
peptide: YXEGTXTSDXSIXLDXKAQXKFIXXLIEGGPSSGAPPPS
modifications: Aib2, αMeF(2F)6, 4Pal10, αMeL13, Orn16, Aib20, D-Glu24, αMeY25, K17 and K21: K(AEEA3-(γ-Glu)-CO-(CH2)12-CO2H), C-terminal NH2
B16: Example 79 (peptide)
peptide: YXEGTXTSDXSIXLDXKAQXEFIKXLIEGGPSSGAPPPS
modifications: Aib2, αMeF(2F)6, 4Pal10, αMeL13, Orn16, Aib20, αMeY25, K17 and K24: K(AEEA-(γ-Glu)-CO-(CH2)12-CO2H), C-terminal NH2

What was measured:
Assay in all cases: cell-based or functional assay
[1] = molecular target: T1, human GIP receptor (human, UniProt P48546 22-466)
T1 sequence (looked up): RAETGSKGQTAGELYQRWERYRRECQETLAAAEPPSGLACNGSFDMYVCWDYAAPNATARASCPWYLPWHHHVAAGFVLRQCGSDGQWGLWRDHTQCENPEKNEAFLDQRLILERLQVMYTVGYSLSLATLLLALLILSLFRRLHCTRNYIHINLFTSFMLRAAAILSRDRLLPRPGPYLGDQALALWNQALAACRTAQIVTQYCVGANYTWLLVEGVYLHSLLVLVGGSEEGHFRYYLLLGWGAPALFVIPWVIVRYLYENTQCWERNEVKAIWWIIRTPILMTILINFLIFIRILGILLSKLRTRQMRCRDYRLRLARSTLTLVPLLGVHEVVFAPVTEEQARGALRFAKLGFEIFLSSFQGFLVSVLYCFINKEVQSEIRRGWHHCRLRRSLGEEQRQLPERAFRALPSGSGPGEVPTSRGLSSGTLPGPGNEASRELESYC

[2] = molecular target: human GLP-1 receptor (human, UniProt P43220 24-463)
[3] = molecular target: human glucagon receptor (human, UniProt P47871 26-477)

Binder	EC50, cAMP [1] [nM]	Emax, cAMP [1] [%]	EC50, cAMP [2] [nM]	EC50, cAMP [3] [nM]	Emax, cAMP [2] [%]
B1	0.0207	97.1	0.437	> 9950	
B2	0.0156	93.3	0.334	> 9950	
B3	0.016	96.5	0.245	> 9950	
B4	0.0182	92.3	0.411	> 9950	
B5	0.0105		0.668	> 9950	95.9
B6	0.00307		0.0157	> 9950	
B7	0.0265	99	0.276	> 9950	
B8	0.0205		0.527	> 9950	
B9	0.0206	81.4	4.78	> 9950	
B10	0.0145		0.286	> 9950	
B11	0.0182	89.1	0.283	> 9950	
B12	0.0245	92.4	0.718	> 9950	
B13	0.0114		0.176	> 9950	
B14	0.0171	93.8	0.246	> 9950	
B15	0.0288		3.03	> 9950	87
B16	0.013		0.223	> 9950	
